Data from the supplement of paper PMC10567573.

B1: VAMP4 (parent)
chain: IMALVAAILLLVIIILIVMKYRT

Variants of: B1
Experiment: protein stability index of a GFP-peptide fusion (GPS, HEK-293T) (PSI 1-6); higher = more stable
Settings: c terminus: native
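Note: lentivirally expressed fusions sorted by FACS into six bins by GFP to DsRed ratio, PSI derived from sequencing read proportions per bin multiplied by bin number.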

Variant	protein stability index
IMALVAAIHLLVIIILIVMKYRT [L9H]	2.52
IMALVAAINLLVIIILIVMKYRT [L9N]	2.4
IMALVAAIYLLVIIILIVMKYRT [L9Y]	2.12
IMALVAAITLLVIIILIVMKYRT [L9T]	3.08
IMALVAAILLLVIIIQIVMKYRT [L16Q]	3.13
IMALVAAILLLVIIIVIVMKYRT [L16V]	3.35
IMALVAAILLLVIIIIIVMKYRT [L16I]	3.44
IMALVAAILLLVIIIEIVMKYRT [L16E]	3.2
IMALVAAILLLVIIITIVMKYRT [L16T]	3.47
IMALVAAILLLVIIIDIVMKYRT [L16D]	2.44
IMALVAAILLLVIIIYIVMKYRT [L16Y]	3.25
IMALVAAILLLVIIISIVMKYRT [L16S]	3.5
IMALVAAILLLVIIIAIVMKYRT [L16A]	3.57
IMALVAAILLLVIIIPIVMKYRT [L16P]	3.2
IMALVAAILLLVIIINIVMKYRT [L16N]	2.73
IMALVAAILLLVIIIMIVMKYRT [L16M]	2.39
IMALVAAILLLVIIIHIVMKYRT [L16H]	3.18
IMALVAAILLLVIIIKIVMKYRT [L16K]	2.73
IMALVAAILLLVIIIRIVMKYRT [L16R]	2.33
IMALVAAILLLVIIICIVMKYRT [L16C]	3.65
IMALVAAILLLVIIIWIVMKYRT [L16W]	3.28
IMALVAAILLLVIIIGIVMKYRT [L16G]	3.18
IMALVAAILLLVIIIFIVMKYRT [L16F]	3.6
IMALVAAILLLVIVILIVMKYRT [I14V]	3.25
IMALVAAILLLVISILIVMKYRT [I14S]	3.02

Variant	protein stability index
IMALVAAILLLVIHILIVMKYRT [I14H]	1.92
IMALVAAILLLVIMILIVMKYRT [I14M]	3.09
IMALVAAILLLVIFILIVMKYRT [I14F]	3.48
IMALVAAILLLVIRILIVMKYRT [I14R]	2.56
IMALVAAILLLVIPILIVMKYRT [I14P]	3.1
IMALVAAILLLVIGILIVMKYRT [I14G]	3.44
IMALVAAILLLVIKILIVMKYRT [I14K]	1.92
IMALVAAILLLVINILIVMKYRT [I14N]	2.17
IMALVAAILLLVITILIVMKYRT [I14T]	3.25
IMALVAAILLLVIQILIVMKYRT [I14Q]	2.23
IMALVAAILLLVIDILIVMKYRT [I14D]	1.5
IMALVAAILLLVICILIVMKYRT [I14C]	3.36
IMALVAAILLLVIEILIVMKYRT [I14E]	2.02
IMALVAAILLLVIYILIVMKYRT [I14Y]	3.26
IMALVAAILLLVIAILIVMKYRT [I14A]	3.33
IMALVAAILLLVIWILIVMKYRT [I14W]	2.71
IMALVAAILLLVILILIVMKYRT [I14L]	3.19
IMALVAAILLLVTIILIVMKYRT [I13T]	3.82
IMALVAAILLLVPIILIVMKYRT [I13P]	2.66
IMALVAAILLLVFIILIVMKYRT [I13F]	3.46
IMALVAAILLLVQIILIVMKYRT [I13Q]	2.86
IMALVAAILLLVGIILIVMKYRT [I13G]	3.21
IMALVAAILLLVDIILIVMKYRT [I13D]	1.4
IMALVAAILLLVSIILIVMKYRT [I13S]	3.36
IMALVAAILLLVAIILIVMKYRT [I13A]	3.86

Variant	protein stability index
IMALVAAILLLVMIILIVMKYRT [I13M]	3.97
IMALVAAILLLVLIILIVMKYRT [I13L]	3.81
IMALVAAILLLVEIILIVMKYRT [I13E]	1.77
IMALVAAILLLVVIILIVMKYRT [I13V]	2.8
IMALVAAILLLVNIILIVMKYRT [I13N]	3.58
IMALVAAILLLVCIILIVMKYRT [I13C]	3.25
IMALVAAILLLVHIILIVMKYRT [I13H]	2.94
IMALVAAILLLVWIILIVMKYRT [I13W]	3.63
IMALVAAILLLVYIILIVMKYRT [I13Y]	3.22
IMALVAAILLLVKIILIVMKYRT [I13K]	1.98
IMALVAAILLLVRIILIVMKYRT [I13R]	3.08
IMALVAAILLLVIIILMVMKYRT [I17M]	3.45
IMALVAAILLLVIIILHVMKYRT [I17H]	1.85
IMALVAAILLLVIIILDVMKYRT [I17D]	1.74
IMALVAAILLLVIIILPVMKYRT [I17P]	2.77
IMALVAAILLLVIIILGVMKYRT [I17G]	2.83
IMALVAAILLLVIIILFVMKYRT [I17F]	2.58
IMALVAAILLLVIIILTVMKYRT [I17T]	3.26
IMALVAAILLLVIIILQVMKYRT [I17Q]	2.31
IMALVAAILLLVIIILRVMKYRT [I17R]	2.33
IMALVAAILLLVIIILKVMKYRT [I17K]	2.9
IMALVAAILLLVIIILAVMKYRT [I17A]	3.54
IMALVAAILLLVIIILNVMKYRT [I17N]	2.79
IMALVAAILLLVIIILCVMKYRT [I17C]	3.11
IMALVAAILLLVIIILSVMKYRT [I17S]	3.07

Variant	protein stability index
IMALVAAILLLVIIILVVMKYRT [I17V]	3.11
IMALVAAILLLVIIILEVMKYRT [I17E]	2.57
IMALVAAILLLVIIILLVMKYRT [I17L]	2.96
IMALVAAQLLLVIIILIVMKYRT [I8Q]	2.01
IMALVAADLLLVIIILIVMKYRT [I8D]	3.13
IMALVAACLLLVIIILIVMKYRT [I8C]	3.01
IMALVAAHLLLVIIILIVMKYRT [I8H]	2.14
IMALVAAPLLLVIIILIVMKYRT [I8P]	2.85
IMALVAAFLLLVIIILIVMKYRT [I8F]	3.4
IMALVAALLLLVIIILIVMKYRT [I8L]	3.28
IMALVAAALLLVIIILIVMKYRT [I8A]	3.34
IMALVAAVLLLVIIILIVMKYRT [I8V]	3.04
IMALVAAWLLLVIIILIVMKYRT [I8W]	2.47
IMALVAANLLLVIIILIVMKYRT [I8N]	2.48
IMALVAATLLLVIIILIVMKYRT [I8T]	3.25
IMALVAAELLLVIIILIVMKYRT [I8E]	2.68
IMALVAAGLLLVIIILIVMKYRT [I8G]	3.37
IMALVAAMLLLVIIILIVMKYRT [I8M]	3.69
IMALVAASLLLVIIILIVMKYRT [I8S]	3.25
IMALVAAKLLLVIIILIVMKYRT [I8K]	2.72
IMALVAAYLLLVIIILIVMKYRT [I8Y]	2.26
IMALVAARLLLVIIILIVMKYRT [I8R]	2.72
